Reference: article PMC4939875 (Nature, 2016)

B1: TONSL WT: siRNA resistant GFP-TONSL, wild type, inducible in U-2-OS (protein)
chain: MSLERELRQLSKAKAKAQRAGQRREEAALCHQLGELLAGHGRYAEALEQHWQELQLRERADDPLGCAVAHRKIGERLAEMEDYPAALQHQHQYLELAHSLRNHTELQRAWATIGRTHLDIYDHCQSRDALLQAQAAFEKSLAIVDEELEGTLAQGELNEMRTRLYLNLGLTFESLQQTALCNDYFRKSIFLAEQNHLYEDLFRARYNLGTIHWRAGQHSQAMRCLEGARECAHTMRKRFMESECCVVIAQVLQDLGDFLAAKRALKKAYRLGSQKPVQRAAICQNLQHVLAVVRLQQQLEEAEGRDPQGAMVICEQLGDLFSKAGDFPRAAEAYQKQLRFAELLDRPGAERAIIHVSLATTLGDMKDHHGAVRHYEEELRLRSGNVLEEAKTWLNIALSREEAGDAYELLAPCFQKALSCAQQAQRPQLQRQVLQHLHTVQLRLQPQEAPETETRLRELSVAEDEDEEEEAEEAAATAESEALEAGEVELSEGEDDTDGLTPQLEEDEELQGHLGRRKGSKWNRRNDMGETLLHRACIEGQLRRVQDLVRQGHPLNPRDYCGWTPLHEACNYGHLEIVRFLLDHGAAVDDPGGQGCEGITPLHDALNCGHFEVAELLLERGASVTLRTRKGLSPLETLQQWVKLYRRDLDLETRQKARAMEMLLQAAASGQDPHSSQAFHTPSSLLFDPETSPPLSPCPEPPSNSTRLPEASQAHVRVSPGQAAPAMARPRRSRHGPASSSSSSEGEDSAGPARPSQKRPRCSATAQRVAAWTPGPASNREAATASTSRAAYQAAIRGVGSAQSRLGPGPPRGHSKALAPQAALIPEEECLAGDWLELDMPLTRSRRPRPRGTGDNRRPSSTSGSDSEESRPRARAKQVRLTCMQSCSAPVNAGPSSLASEPPGSPSTPRVSEPSGDSSAAGQPLGPAPPPPIRVRVQVQDHLFLIPVPHSSDTHSVAWLAEQAAQRYYQTCGLLPRLTLRKEGALLAPQDLIPDVLQSNDEVLAEVTSWDLPPLTDRYRRACQSLGQGEHQQVLQAVELQGLGLSFSACSLALDQAQLTPLLRALKLHTALRELRLAGNRLGDKCVAELVAALGTMPSLALLDLSSNHLGPEGLRQLAMGLPGQATLQSLEELDLSMNPLGDGCGQSLASLLHACPLLSTLRLQACGFGPSFFLSHQTALGSAFQDAEHLKTLSLSYNALGAPALARTLQSLPAGTLLHLELSSVAAGKGDSDLMEPVFRYLAKEGCALAHLTLSANHLGDKAVRDLCRCLSLCPSLISLDLSANPEISCASLEELLSTLQKRPQGLSFLGLSGCAVQGPLGLGLWDKIAAQLRELQLCSRRLCAEDRDALRQLQPSRPGPGECTLDHGSKLFFRRL
modifications: left off: GFP, end not stated, kept
B2: Full length TONSL: in vitro-translated full length TONSL (protein)
chain: B1 chain
modifications: 35S-methionine
B3: WT: human TONSL Ankyrin Repeat Domain (residues 512–692), wild type (protein)
chain: GHLGRRKGSKWNRRNDMGETLLHRACIEGQLRRVQDLVRQGHPLNPRDYCGWTPLHEACNYGHLEIVRFLLDHGAAVDDPGGQGCEGITPLHDALNCGHFEVAELLLERGASVTLRTRKGLSPLETLQQWVKLYRRDLDLETRQKARAMEMLLQAAASGQDPHSSQAFHTPSSLLFDPETS
modifications: left off: GST, end not stated, cleaved

What was measured:
U-2-OS cells = experiment: Clonogenic assay upon GFP-TONSL induction; assay type: cell-based; settings: siTONSL; presence and absence of CPT 50 nM 24 h; 12-15 days; +tet
histones H3–H4 = experiment: Pull-down with recombinant histones H3–H4; assay type: binding; settings: GST-ARD with H3–H4 tetramers, 20 mM Tris pH 7.5, 0.5 M NaCl, 23 °C, 1 h; IVT full length TONSL with H3.1–H4 beads, 2 h

Molecule | viability of TONSL depleted cells (colony formation) (U-2-OS cells) | direct binding to histones H3–H4 in vitro (histones H3–H4)
B1 | partially rescued viability | 
B2 |  | bound directly to histones H3–H4
B3 |  | bound directly to histones H3–H4
